# Test system: Escherichia coli TOP10
# Assay: shrunken log2 fold change of peptide-encoding DNA abundance (4.5 h post-induction vs induction); higher = less antimicrobial activity (less host growth inhibition)
# Details: time post-induction: 4.5 h; library: site-saturation at positions 5, 18, 19, 20
# 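Also: peptides expressed intracellularly from a pBAD plasmid library in pooled LB shake-flask culture, induced with 0.3% L-arabinose, DNA abundance read by NGS, three biological replicates, DESeq2 with apeglm shrinkage.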
row,Sequence,shrunken log2 fold change
1,RRIRYRPPRLPRPRPRPFKVPRP,-0.123
2,RRIRPRPPRLPRPRPRPEVMPRP,0.462
3,RRIRNRPPRLPRPRPRPLFSPRP,-0.753
4,RRIRYRPPRLPRPRPRPWYHPRP,-0.0547
5,RRIRWRPPRLPRPRPRPLGSPRP,-0.0308
6,RRIRRRPPRLPRPRPRPAKGPRP,-0.0594
7,RRIRVRPPRLPRPRPRPGGAPRP,0.603
8,RRIRFRPPRLPRPRPRPLLSPRP,0.0127
9,RRIRSRPPRLPRPRPRPTSYPRP,-0.0485
10,RRIRYRPPRLPRPRPRPADIPRP,-0.0376
11,RRIRDRPPRLPRPRPRPISQPRP,0.12
12,RRIRVRPPRLPRPRPRPYRFPRP,-0.0944
13,RRIRSRPPRLPRPRPRPHATPRP,0.378
14,RRIRSRPPRLPRPRPRPKHIPRP,-0.368
15,RRIRIRPPRLPRPRPRPTLIPRP,-0.101
16,RRIRSRPPRLPRPRPRPFFLPRP,-0.16
17,RRIRARPPRLPRPRPRPNYIPRP,-0.414
18,RRIRIRPPRLPRPRPRPYKDPRP,-0.317
19,RRIRVRPPRLPRPRPRPDGFPRP,-0.0085
20,RRIRSRPPRLPRPRPRPWSWPRP,0.405
21,RRIRHRPPRLPRPRPRPQIVPRP,-0.238
22,RRIRRRPPRLPRPRPRPFPGPRP,-0.143

row,Sequence,shrunken log2 fold change
1,RRIRVRPPRLPRPRPRPIRKPRP,-0.165
2,RRIRFRPPRLPRPRPRPLYSPRP,-0.211
3,RRIRQRPPRLPRPRPRPMPMPRP,-0.00149
4,RRIRDRPPRLPRPRPRPYTQPRP,-0.165
5,RRIRVRPPRLPRPRPRPYIEPRP,-0.584
6,RRIRFRPPRLPRPRPRPKPHPRP,1.81
7,RRIRPRPPRLPRPRPRPCDFPRP,-0.179
8,RRIRHRPPRLPRPRPRPLCAPRP,-0.0531
9,RRIRSRPPRLPRPRPRPDFYPRP,-0.0521
10,RRIRVRPPRLPRPRPRPQWSPRP,-0.201
11,RRIRTRPPRLPRPRPRPLAMPRP,0.128
12,RRIRRRPPRLPRPRPRPGDTPRP,0.0234
13,RRIRDRPPRLPRPRPRPLYQPRP,-0.0432
14,RRIRCRPPRLPRPRPRPVCHPRP,-0.294
15,RRIRKRPPRLPRPRPRPFDCPRP,-0.128
16,RRIRLRPPRLPRPRPRPMTGPRP,-0.0115
17,RRIRQRPPRLPRPRPRPFWEPRP,-0.0669
18,RRIRHRPPRLPRPRPRPFLYPRP,-0.624
19,RRIRYRPPRLPRPRPRPKNAPRP,-0.186
20,RRIRPRPPRLPRPRPRPKFFPRP,0.0479
21,RRIRERPPRLPRPRPRPLFQPRP,-0.271
22,RRIRTRPPRLPRPRPRPPMWPRP,0.0903

row,Sequence,shrunken log2 fold change
1,RRIRCRPPRLPRPRPRPFNCPRP,-1.32
2,RRIRSRPPRLPRPRPRPHPGPRP,0.00228
3,RRIRDRPPRLPRPRPRPPIFPRP,-0.129
4,RRIRKRPPRLPRPRPRPISIPRP,0.0294
5,RRIRGRPPRLPRPRPRPGIDPRP,0.607
6,RRIRFRPPRLPRPRPRPYWNPRP,-0.388
7,RRIRLRPPRLPRPRPRPEDDPRP,0.0572
8,RRIRQRPPRLPRPRPRPTYTPRP,-0.346
9,RRIRERPPRLPRPRPRPVNCPRP,-0.315
10,RRIRSRPPRLPRPRPRPRAWPRP,0.0718
11,RRIRARPPRLPRPRPRPKSHPRP,-0.184
12,RRIRSRPPRLPRPRPRPWQQPRP,0.179
13,RRIRLRPPRLPRPRPRPMHTPRP,0.25
14,RRIRKRPPRLPRPRPRPKKVPRP,-0.0126
15,RRIRHRPPRLPRPRPRPRCQPRP,0.219
16,RRIRYRPPRLPRPRPRPSMRPRP,-0.634
17,RRIRFRPPRLPRPRPRPFYPPRP,-0.824
18,RRIRMRPPRLPRPRPRPQFLPRP,-0.106
19,RRIRCRPPRLPRPRPRPSHVPRP,-0.387
20,RRIRCRPPRLPRPRPRPLNPPRP,-0.185
21,RRIRYRPPRLPRPRPRPVGVPRP,-0.0394
22,RRIRTRPPRLPRPRPRPKHSPRP,-0.416

row,Sequence,shrunken log2 fold change
1,RRIRFRPPRLPRPRPRPYAVPRP,-0.419
2,RRIRNRPPRLPRPRPRPSTNPRP,-0.337
3,RRIRWRPPRLPRPRPRPPASPRP,0.319
4,RRIRHRPPRLPRPRPRPFNDPRP,-0.01
5,RRIRGRPPRLPRPRPRPPCTPRP,0.76
6,RRIRLRPPRLPRPRPRPQREPRP,0.144
7,RRIRDRPPRLPRPRPRPWTAPRP,-0.0482
8,RRIRHRPPRLPRPRPRPGLYPRP,-0.149
9,RRIRNRPPRLPRPRPRPPENPRP,0.181
10,RRIRERPPRLPRPRPRPDRPPRP,-0.165
11,RRIRSRPPRLPRPRPRPEHWPRP,0.422
12,RRIRCRPPRLPRPRPRPAWRPRP,0.575
13,RRIRMRPPRLPRPRPRPPMNPRP,0.315
14,RRIRMRPPRLPRPRPRPDHIPRP,-0.000611
15,RRIRHRPPRLPRPRPRPVPLPRP,-0.396
16,RRIRRRPPRLPRPRPRPVNTPRP,-0.0567
17,RRIRNRPPRLPRPRPRPPVRPRP,0.489
18,RRIRSRPPRLPRPRPRPLCDPRP,0.155
19,RRIRCRPPRLPRPRPRPKIYPRP,-0.643
20,RRIRNRPPRLPRPRPRPHCTPRP,-0.0475
21,RRIRRRPPRLPRPRPRPQLPPRP,0.283
22,RRIRSRPPRLPRPRPRPPCEPRP,-0.236

row,Sequence,shrunken log2 fold change
1,RRIRLRPPRLPRPRPRPCSLPRP,0.00822
2,RRIRIRPPRLPRPRPRPCSGPRP,-0.852
3,RRIRNRPPRLPRPRPRPPDLPRP,0.101
4,RRIRIRPPRLPRPRPRPCTPPRP,-0.719
5,RRIRMRPPRLPRPRPRPKCIPRP,-0.113
6,RRIRLRPPRLPRPRPRPENDPRP,-0.336
7,RRIRLRPPRLPRPRPRPKHKPRP,-0.103
8,RRIRNRPPRLPRPRPRPEPHPRP,0.131
9,RRIRCRPPRLPRPRPRPATVPRP,0.141
10,RRIRMRPPRLPRPRPRPCQWPRP,-0.152
11,RRIRWRPPRLPRPRPRPDPDPRP,0.545
12,RRIRKRPPRLPRPRPRPVITPRP,-0.249
13,RRIRPRPPRLPRPRPRPVQQPRP,0.378
14,RRIRPRPPRLPRPRPRPHETPRP,-0.164
15,RRIRARPPRLPRPRPRPMIYPRP,0.00125
16,RRIRMRPPRLPRPRPRPECFPRP,1.35
17,RRIRVRPPRLPRPRPRPIILPRP,-0.483
18,RRIRQRPPRLPRPRPRPVLTPRP,0.0694
19,RRIRCRPPRLPRPRPRPHRQPRP,-0.19
20,RRIRRRPPRLPRPRPRPMSLPRP,-0.0564
21,RRIRGRPPRLPRPRPRPPCWPRP,1.09

# Reference: the supplement of paper PMC9112550, “Optimization of the antimicrobial peptide Bac7 by deep mutational scanning” (BMC Biology, 2022)
